Results on one molecule are retold here after US7256321B2, “Intracellular modulators of apoptopic cell death pathways” (Applied Research Systems ARS Holding N.V., priority 1997, dated 2007).

Common to all, as to type: cell-based, mouse
Assay [1] deals with 3DO transfected clones. The assay is described as follows: Anti-CD3-induced apoptosis of 3DO transfected clones (propidium iodide flow cytometry). The note with it: GILR expression in transfected 3DO clones. The protocol: Thymocytes were obtained from 3 to 5-week-old C3H/HeN mice purchased from Charles River (Milan, Italy). The cell suspensions were washed, filtered and adjusted to a concentration of 8×10^6 cells/ml in complete medium. The cells were incubated at 37° C. alone or with 100 nM/l DEX (Sigma, St. Louis, Mo.) for 3 hrs. A CD3+, CD4+, CD2+, CD44+ sub-line obtained in our laboratory of the OVA-specific mouse hybridoma T cell line (3DO; Ayroldi et al., 1995) maintained in suspension in RPMI 1640 medium supplemented with 10% FCS and […] HEPES buffer was used for transfection experiments. […]
The GILR cDNA coding sequence (874 bp—see FIG. 2) was cloned into a pcDNA3 plasmid (Invitrogen) for expression in mammalian cells. […] These surviving cells were considered clones and analyzed in an RNase protection assay for the expression of exogenous GILR (Vito et al., 1996). […]
Apoptosis was measured by flow cytometry as described elsewhere (Nicoletti et al., 1991). […] The PI-fluorescence of individual nuclei was measured by flow cytometry using standard FACScan equipment (Becton Dickinson). […] A 560 nm dichroid mirror (DM 570) and a 600 nm band pass filter (band width 35 nm) were used to collect the red fluorescence due to PI DNA staining. The data were recorded in logarithmic scale in a Hewlett Packard (HP 9000, model 310; Palo Alto, Calif.) computer. […]

For assay [2], the system named is Fas/Fas-L expression on 3DO transfected clones. The experiment in a line: Fas and Fas-L expression on 3DO transfected clones (flow cytometry). The note with it: GILR expression in transfected 3DO clones. The method, then: Hamster anti-mouse CD3ε (clone 145-2C11; Pharmingen, San Diego, Calif.) mAb at 1 μg/well (=1 μg/ml of anti-CD3 antibody) was allowed to adhere to flat-bottomed, high-binding 96-well plates (Costar, Cambridge, Mass.) at 4° C. in 100 μl PBS. After 20 hours, plates coated with mAb were washed and transfected clones were plated at 1×10^5 cells/well and incubated at 37° C. for 20 hours. Isotype-matched rat anti-mouse IgG 2b mAbs (clone R 35-38, Pharmingen) were used a control.
A single suspension (1×10^6cells/sample) was incubated for 30 minutes on ice in 50 μl staining buffer (PBS plus 5% FCS), containing 10 μg/ml hamster anti-mouse Fas mAb directly conjugated to R-phycoerythrin (PE) or PE-hamster IgG (isotype control).
Both mAbs were purchased from Pharmingen. Cells were also stained with rabbit polyclonal antibody raised against a peptide corresponding to amino acids 260-279 mapping at the carboxy terminus of human Fas-L (Santa Cruz Biotechnology, Inc., Santa Cruz, Calif.) or with isotype-matched antibody (ab), and with anti-rabbit IgG FITC conjugate, F(ab′)2 fragment (Sigma), as a second step reagent.
All clones were stained with hamster anti-mouse αCD3, directly conjugated with fluorescein (Pharmingen). The median or percentage of Fas and Fas-L histograms was calculated using lysis II research software (Becton-Dickinson, Mountain View, U.S.A.).

The test system of assay [3] is 3DO transfected clones. The assay is described as follows: Apoptosis induced by other stimuli on 3DO transfected clones. The note with it: GILR overexpression in 3DO clones GILR/1,5,7 vs pcDNA3/4,7,8, 20 hours. The protocol:
FIGS. 7A-7D are bar-graph representations of the results of the analysis of apoptosis induced by other stimuli on 3DO transfected clones, wherein in FIG. 7A is shown the results obtained with withdrawn trophic factor; in FIG. 7B is shown the results obtained with u.v. irradiation (100 J/m2); in FIG. 7C is shown the results obtained with DEX ([…]); and in FIG. 7D is shown the results obtained with monoclonal (mAb) anti-Fas antibody (5 μg/ml). All groups were treated for 20 hours. Cell death was measured as indicated above with respect to FIG. 6, and as noted herein below. […]
Aliquots of2 ml transfected clones (1×10^6/ml) were incubated with DEX or subjected to deprivation conditions (1% FCS). The apoptosis was evaluated after 20 hours as described below.
Apoptosis was measured by flow cytometry as described elsewhere (Nicoletti et al., 1991). […] The PI-fluorescence of individual nuclei was measured by flow cytometry using standard FACScan equipment (Becton Dickinson). […] A 560 nm dichroid mirror (DM 570) and a 600 nm band pass filter (band width 35 nm) were used to collect the red fluorescence due to PI DNA staining. The data were recorded in logarithmic scale in a Hewlett Packard (HP 9000, model 310; Palo Alto, Calif.) computer. The percentage of apoptotic cell nuclei (sub-diploid DNA peak in the DNA fluorescence histogram) was calculated with specific FACScan research software (Lysis II).

A further assay relates to IL-2R. The assay is described as follows: IL-2R (CD25) expression on 3DO transfected clones (flow cytometry). The note with it: overexpression of GILR in transfected 3DO clones. The protocol: For that purpose, GILR transfected clones were activated and analyzed for apoptosis and expression of activation markers, like the interleukin-2 receptor (IL-2R). In particular, after stimulation with cross-linked anti-CD3 monoclonal antibodies (1 μg/ml), GILR-transfected and empty vector clones (used as control) were stained with anti-IL-2R monoclonal antibody (CD25) or treated for propidium iodide labeling for apoptosis evaluation. The supernatants from control and anti-CD3-treated clones were used for IL-2 detection in an ELISA assay.

B1: GILR: Glucocorticoid Induced Leucine-zipper family Related protein, 137 amino acids (mouse), overexpressed from GILR cDNA in pcDNA3 (protein)
chain: MNTEMYQTPMEVAVYQLHNFSTSFFSSLLGGDVVSVKLDNSASGASVVALDNKIEQAMDLVKNHLMYAVREEVEVLKEQIRELLEKNSQLERENTLLKTLASPEQLEKFQSRLSPEEPAPEAPETPETPEAPGGSAV
Regarding B1, the TCR/CD3-activated apoptosis result with 3DO transfected clones [1] was “inhibits”. Besides, the Fas/Fas-L expression result in assay [2] is “inhibits”. In addition, the “apoptosis induced by DEX, UV irradiation, starvation or crosslinked anti-Fas monoclonal antibody” value with 3DO transfected clones [3] is on record as “does not counteract”. Further, the “anti-CD3 induced activation (IL-2R, IL-2)” value in the assay with IL-2R is given as “inhibits”.
